Results taken from article PMC10321058.

Molecular target: SARS-CoV-2 spike RBD protein (SARS-CoV-2, UniProt P0DTC2 319-541)
Assay: electrochemical aptasensor

B1: thiolated SARS-CoV-2 RBD aptamer (Song et al. 2020) (ssDNA)
DNA: TTTTTCCAGCCACCGACCTTGTGCTTTGGGAGTGCTGGTCCAAGGGCGTTAAGGACA
modifications: 5'-thiol, TCEP reduced, immobilized on SPCE/HA-LSCF
- binding result: binds
